Experimental data published in patent publication US20160009800A1 (XOMA US, published 2016).
Changes are numbered by the printed parent chain.

B1: Ab037 (antibody, V domains shown)
VH: EVQLLESGGGLVQPGGSLRLSCAASGFTFSSYEMNWVRQAPGKGLEWVSSISSSSRYADVANSVVGRFTISRDNSKNTLYLQMNSLRAEDTAVYYCARGEWLDHFDYWGQGTLVTVSS
VL: QSVLTQPPSASGTPGQRVTISCSGSSSNIGNSAVNWYQQLPGTAPKLLIYDNNKRPSGVPDRFSGSKSGTSASLAISGLRSEDEADYYCQVWDSGTAVFGGGTKLTVLG
notes: Partial allosteric agonist; also called XPA.015.048
B2: Ab053 (antibody, V domains shown)
VH: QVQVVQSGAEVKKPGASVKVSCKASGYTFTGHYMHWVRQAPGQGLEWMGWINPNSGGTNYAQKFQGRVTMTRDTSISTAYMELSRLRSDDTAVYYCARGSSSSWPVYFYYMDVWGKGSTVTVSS
VL: QSALTQPRSVSESPGKTVTISCTGSGGSIGSNYVQWYQQRPGSAPTTVIFEDNRRPSGVPDRFSGSIHSSSNSASLTISGLKTEDEADYYCQSYVGTIVVFGGGTKVTVL
notes: also called XPA.015.196
B3: Ab080 (antibody, IgG2, V domains shown)
VH: EVQLVESGGGVVQPGGSLRLSCAASGFTFDDYAMHWVRQAPGKGLEWVSLISWDGGSTYYADSVKGRFTISRDNSKNSLYLQMNSLRAEDTALYYCAKARGVVIIDYWGQGTLVTVSS
VL: EIVLTQSPGTLSLSPGERATLSCRASQSLSSSFLAWYQQKPGQAPRLLIYGAGSRATGVPDRFSGSGYGTDFSLTISRLELEDFAVYYCQQYDRSQITFGQGTRLEIK
notes: also called XPA.015.246
B4: Ab074 (antibody, IgG2, V domains shown)
VH: EVQLVQSGAEVKKPGESLKISCKGSGYSFTSYWIGWVRQMPGKGLEWMGIIYPGDSDTRYSPSFQGQVTISADKSISTAYLQWSSLKASDTAMYYCARWDAGYSPWGQGTLVTVSS
VL: SSELTQDPAVSVALGQTVRITCQGDSLRSYYASWYQQKPGQAPVLVIYGKNNRPSGIPDRFSGSSSGNTASLTITGAQAEDEADYYCSSRDSSGDQWVFGGGTKLTVL
notes: also called XPA.015.230
B5: Ab072 (antibody, IgG2, V domains shown)
VH: QMQLVQSGAEVKKPGESLKISCKGSGYSFTGYWIGWVRQMPGKGLEWMGIIYPGDSDTRYSPSFQGQVTISADKSISTAYLQWSSLKVSDTAMYYCGRISTPYAFDIWGQGTMVTVSS
VL: SYVLTQPPSASGTPGQRVTISCSGSNSNIGSNFVTWYQQLPGAAPKLLIYTNSQRPSGVPDRFSGSRSGTSASLAISGLQSEDEADYFCAAWDDSLNGPVFGGGTQLTVL
notes: also called XPA.015.228
B6: Ab073 (antibody, IgG2, V domains shown)
VH: QVQLQESGPGLVKPSGTLSLTCAVSGGSISSSNWWSWVRQPPGKGLEWIGEIYHSGSTNYNPSLKSRVTISVDKSKNQFSLKLSSVTAADTAVYYCARVGAAAAWFDPWGQGTLVTVSS
VL: QSVLTQPPSVSAAAGQKVTISCSGSSSNIGNNYVTWYQHVPGTAPKLLIFDNDKRPSGIPDRFSGSKSGTSATLAITGLQTGDEADYYCGTWDSSLNPLFGGSTQLTVL
notes: also called XPA.015.229
B7: Ab075 (antibody, IgG2, V domains shown)
VH: EVQLVETGGGVVQPGRSLRLSCAASGFSFSSYDMYWVRQAPGKGLEWVAVISYDGNDKQYADSVKGRFTISRDNSKRTLYLQMDSLRTEDTATYYCTREGNGREIDYWGPGTLVTVSS
VL: B6 VL with A14P, S103G
notes: also called XPA.015.232
B8: Ab076 (antibody, V domains shown)
VH: B3 VH
VL: EIVMTQSPATLSVSPGERATLSCRASQSISTNLAWYQQKPGQTPRLLIYGASTRATGIPARFSGSGSGTEFTLTISSLQSEDFAVYYCQQYNSEISFGQGTRLEIK
notes: also called XPA.015.241
B9: Ab082 (antibody, IgG2, V domains shown)
VH: QMQLVQSGAEVKKPGESLKISCKGSGYSFTSYWIGWVRQMPGKGLEWMGIIYPGDSDTRYSPSFQGQVTISADKSISTAYLQWSSLKASDTAMYYCARWGPDAFDIWGQGTMVTVSS
VL: EIVLTQSPDFQSVTPKETVTISCRASQNIGVSLHWYQQKPDQSPKVLIKYASQSLSGVPSRFSGTGSGTDFTLTIKSLEAEDAATYYCLQTSSLPWTFGQGTKVEIK
notes: also called XPA.015.248
B10: Ab084 (antibody, IgG2, V domains shown)
VH: QVQLVESGGGLVQPGGSLRLSCAASGFTFKNYWMTWVRQAPGKGLEWVADIKGDGSRQHYADSVKGRFTISRDNARNSLFLQMNSLRVEDTALYYCATDPPWDRDAFDLWGQGTMVTVSS
VL: AIRMTQSPSTLSASVGDRVTITCRASQSISSWLAWYQQTPGKAPKLLIYAASNLQSGVPSRFSGSGSGTDFTLTISSLQPEDFATYYCQQSYNTPLTFGGGTKVEIK
notes: also called XPA.015.250
B11: Ab083 (antibody, IgG2, V domains shown)
VH: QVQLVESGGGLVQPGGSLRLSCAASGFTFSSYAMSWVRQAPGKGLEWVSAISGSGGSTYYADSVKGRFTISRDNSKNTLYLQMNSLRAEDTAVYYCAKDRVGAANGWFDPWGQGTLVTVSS
VL: AIQLTQSPSSLSASVGDRVTISCRASQSITSYLNWYQQKPGKAPNLLIYAASSLQSGVPSRFSGSGSGTDFTLTIAGLQPEDFATYYCQQFDSYPFTFGGGTKLEIK
notes: also called XPA.015.249

Target: T1, human insulin receptor complexed with human insulin (human, UniProt P06213 28-1382; P01308 25-54; P01308 90-110)
T1 construct: whole, on cells;mature; also called hINSR-hINS complex; INS/INSR complex
Assay: KinExA, affinity with insulin against affinity without insulin
Procedure: (§1) Beads were rotated at room temperature for 6 hours then allowed to settle. Supernatant was replaced with PBS with 50 mg/mL BSA Fraction V (Sigma-Aldrich, St. Louis, Mo.) and rotated overnight at 4° C. […] On the KinExA 3000 the sample was injected at 0.25 mL/minute for 240 seconds, then rinsed for 60 seconds in running buffer (PBS with 0.05% sodium azide), then 240 seconds of the detection solution was injected, followed by a final 90 second wash at 1 mL/minute. The difference in voltage from an early initial time-point and a time point near the end of the run was measured and used to calculate affinities. The INSR concentration on the cells was estimated at 2.5×10⁵ receptors/cell. Affinity was determined using the KinExA software (Sāpidyne, Boise Id.) and EC50's were calculated by non-linear fit in Prism (GraphPad Software, La Jolla Calif.).
(§2) Samples were incubated overnight at 4° C. for 18 hours then centrifuged to pellet cells and supernatants were removed for testing on the KinExA. […] Detection solution used was R-PE-(Fab′)2 fragment goat anti-Human IgG(H+L) (Jackson Immuno Research, West Grove Pa.).

Row | Binder | Fold Improvement with Insulin
1 | B1 | 1.4 fold
2 | B2 | 1.5 fold
3 | B3 | 17.6 fold

Target: T2, human insulin receptor (human, UniProt P06213 28-1382)
T2 construct: whole, on cells; Uncomplexed receptor on serum-starved cells (CHOK1 transfectants or IM-9); also called hINSR; INSR
Assay: FACS, serum-starved CHO-K1 cells expressing human INSR, no insulin

Row | Binder | FACS area under log transformed data MFI
4 | B2 | 1330

Target: T2, human insulin receptor
Assay: FACS, serum-starved CHO-K1 cells expressing human INSR, no insulin [cont'd]

Row | Binder | FACS area under log transformed data MFI
5 | B3 | 282
6 | B4 | 596
7 | B5 | 226
8 | B6 | 729
9 | B7 | 692
10 | B8 | 552
11 | B9 | 399
12 | B10 | 532

Target: T1, human insulin receptor complexed with …
Assay: KinExA antibody depletion by hINSR8-CHOK1 cells, with 175 nM insulin
Procedure: as §1, §2

Row | Binder | Kd
13 | B1 | 80 pM
14 | B2 | 96 pM
15 | B3 | 680 pM
16 | B11 | 376 pM

Target: T3, mouse insulin receptor complexed with human insulin (mouse; human, UniProt P15208 28-1372; P01308 25-54; P01308 90-110)
T3 construct: whole, on cells;mature; also called muINSR/hINS complex
Assay: FACS, serum-starved CHO-K1 cells expressing mouse INSR, with insulin [cont'd]

Row | Binder | FACS area under log transformed data MFI
17 | B3 | 191
18 | B4 | 503
19 | B5 | 267
20 | B6 | 321
21 | B7 | 446
22 | B8 | 391
23 | B9 | 267
24 | B11 | 179
25 | B10 | 344

Target: T4, mouse insulin receptor (mouse, UniProt P15208 28-1372)
T4 construct: whole, on cells; also called muINSR; mINSR
Assay: FACS, serum-starved CHO-K1 cells expressing mouse INSR, no insulin

Row | Binder | FACS area under log transformed data MFI
26 | B2 | 1130

Target: T3, mouse insulin receptor complexed with …
Assay: FACS, CHO-K1 mouse INSR cells, signal with insulin divided by signal without insulin
Procedure: (§3) Twenty five microliter aliquots of cells were plated into 96 well plates, mixed with 25 ul of antibody or PPE and incubated on ice for 1 h.
(§4) The cells were then washed once with FACS buffer and the binding of the antibody was detected by the addition of 25 ul of an appropriate fluorochrome-conjugated secondary antibody. […] After a final 15 min incubation on ice the cells were washed and the pellets resuspended in FACS buffer. The cells were analyzed on a FACSCAN™ (Becton-Dickinson, Milipitas, Calif.) and the data analyzed in both FLOWJO™ (Treestar, Ashland, Oreg.) and Microsoft Excel™.

Row | Binder | FACS area under log transformed data MFI ratio (+insulin/-insulin)
27 | B2 | 0.51

Target: T4, mouse insulin receptor
Assay: cell-based or functional assay

Row | Binder | EC50 of pAkt activation without insulin, mouse INSR CHO-K1 cells | relative maximum pAkt activation without insulin, mouse INSR CHO-K1 cells
28 | B1 | 1.42 nM | 42%
29 | B2 | 0.69 nM | 48%

Target: T2, human insulin receptor
Assay: cell-based or functional assay

Row | Binder | EC50 of pAkt activation without insulin, human INSR CHO-K1 cells | relative maximum pAkt activation without insulin, human INSR CHO-K1 cells
30 | B1 | 0.65 nM | 79%
31 | B2 | 0.42 nM | 64%

Target: T3, mouse insulin receptor complexed with …
Assay: FACS, serum-starved CHO-K1 cells expressing mouse INSR, with insulin

Row | Binder | FACS area under log transformed data MFI
32 | B2 | 574

Target: T2, human insulin receptor
Assay: KinExA antibody depletion by hINSR8-CHOK1 cells, without insulin
Procedure: as §1, §2

Row | Binder | Kd
33 | B1 | 108 pM
34 | B2 | 148 pM
35 | B3 | 12000 pM
36 | B11 | 7600 pM

Target: T1, human insulin receptor complexed with …
Assay: FACS, serum-starved CHO-K1 cells expressing human INSR, with insulin [cont'd]
Procedure: as §3, §4

Row | Binder | FACS area under log transformed data MFI
37 | B3 | 386
38 | B4 | 260
39 | B6 | 341
40 | B7 | 353
41 | B8 | 543
42 | B11 | 294
43 | B10 | 508

Target: T3, mouse insulin receptor complexed with …
Assay: FACS, CHO-K1 mouse INSR cells, signal with insulin divided by signal without insulin [cont'd]
Procedure: as §3, §4

Row | Binder | FACS area under log transformed data MFI ratio (+insulin/-insulin)
44 | B3 | 1.22
45 | B4 | 0.54
46 | B5 | 0.53
47 | B6 | 1.05
48 | B7 | 1.05
49 | B8 | 1.46
50 | B9 | 1.04
51 | B10 | 1.75

Target: T4, mouse insulin receptor
Assay: FACS, serum-starved CHO-K1 cells expressing mouse INSR, no insulin [cont'd]
Procedure: as §3, §4

Row | Binder | FACS area under log transformed data MFI
52 | B3 | 157
53 | B4 | 932
54 | B5 | 508
55 | B6 | 307
56 | B7 | 425
57 | B8 | 268
58 | B9 | 257
59 | B11 | 81
60 | B10 | 196

Target: T2, human insulin receptor
Assay: cell-based or functional assay
Remark: another data set of the same source

Row | Binder | pAKT assay, fold-decrease in insulin EC50 relative to isotype control Ab
61 | B3 | 8.4 fold

Target: T1, human insulin receptor complexed with …
Assay: FACS, CHO-K1 human INSR cells, signal with insulin divided by signal without insulin [cont'd]
Procedure: as §3, §4

Row | Binder | FACS area under log transformed data MFI ratio (+insulin/-insulin)
62 | B3 | 1.37
63 | B4 | 0.44
64 | B6 | 0.47
65 | B7 | 0.51
66 | B8 | 0.98
67 | B10 | 0.95

Target: T1, human insulin receptor complexed with …
Assay: FACS, serum-starved CHO-K1 cells expressing human INSR, with insulin
Procedure: as §3, §4

Row | Binder | FACS area under log transformed data MFI
68 | B2 | 451

Target: T1, human insulin receptor complexed with …
Assay: FACS, CHO-K1 human INSR cells, signal with insulin divided by signal without insulin
Procedure: as §3, §4

Row | Binder | FACS area under log transformed data MFI ratio (+insulin/-insulin)
69 | B2 | 0.34
